Laboratory results from patent US20180244758A1 (MAPP BIOPHARMACEUTICAL, published 2018).

What was measured:
Experiment in all cases: cell-based or functional assay
[1] = biological target: T1, EBOV GP on rVSV particles (Ebola virus (EBOV), UniProt Q05320 33-676)
T1 sequence: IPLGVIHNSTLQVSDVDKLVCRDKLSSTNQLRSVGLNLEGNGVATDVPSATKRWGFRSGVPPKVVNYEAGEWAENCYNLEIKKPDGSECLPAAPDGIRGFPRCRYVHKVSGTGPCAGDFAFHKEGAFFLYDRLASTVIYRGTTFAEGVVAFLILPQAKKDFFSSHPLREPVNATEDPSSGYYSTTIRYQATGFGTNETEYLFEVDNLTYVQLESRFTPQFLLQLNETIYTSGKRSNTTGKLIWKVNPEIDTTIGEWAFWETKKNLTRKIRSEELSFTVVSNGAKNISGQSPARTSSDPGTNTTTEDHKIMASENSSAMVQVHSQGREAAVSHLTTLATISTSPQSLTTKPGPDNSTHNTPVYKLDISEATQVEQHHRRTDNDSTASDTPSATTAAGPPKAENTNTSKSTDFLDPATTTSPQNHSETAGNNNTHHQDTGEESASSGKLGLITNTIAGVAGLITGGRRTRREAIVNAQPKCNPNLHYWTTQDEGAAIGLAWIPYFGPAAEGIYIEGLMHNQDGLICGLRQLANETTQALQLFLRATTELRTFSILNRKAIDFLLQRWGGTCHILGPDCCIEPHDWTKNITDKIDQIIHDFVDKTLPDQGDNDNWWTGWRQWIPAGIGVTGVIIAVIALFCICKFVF

[2] = biological target: BDBV GP on rVSV particles (Bundibugyo virus (BDBV))
[3] = biological target: T2, TAFV GP on VSV pseudotype particles (Tai Forest virus (TAFV), UniProt Q66810 33-676)
T2 sequence: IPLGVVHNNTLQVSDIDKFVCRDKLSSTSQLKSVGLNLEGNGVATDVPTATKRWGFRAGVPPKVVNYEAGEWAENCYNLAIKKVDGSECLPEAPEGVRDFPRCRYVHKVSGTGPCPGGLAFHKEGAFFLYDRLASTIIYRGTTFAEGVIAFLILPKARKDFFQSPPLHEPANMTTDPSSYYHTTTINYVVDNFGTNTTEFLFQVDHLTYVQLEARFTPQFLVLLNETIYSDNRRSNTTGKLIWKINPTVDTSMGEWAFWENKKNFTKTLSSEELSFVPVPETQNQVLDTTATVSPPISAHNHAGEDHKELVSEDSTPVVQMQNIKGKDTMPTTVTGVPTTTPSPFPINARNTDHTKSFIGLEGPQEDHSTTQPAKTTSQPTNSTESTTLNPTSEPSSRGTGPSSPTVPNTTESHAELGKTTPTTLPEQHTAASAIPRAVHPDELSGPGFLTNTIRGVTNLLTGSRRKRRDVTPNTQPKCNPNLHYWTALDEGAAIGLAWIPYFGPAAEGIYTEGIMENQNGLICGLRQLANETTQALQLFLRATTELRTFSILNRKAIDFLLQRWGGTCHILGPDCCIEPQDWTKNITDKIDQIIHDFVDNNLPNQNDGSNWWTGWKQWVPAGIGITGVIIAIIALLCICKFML

B1: mAb PE-87 (antibody, V domains shown)
VH: QVQLVQSGVTLVQPGGSLRVSCAASGFTFSSYAMSWVRQAPGKGLEWVSAISGLGGSTYYADSVKGRFTISRDNSKNTLYLQMNSLRAEDTAVYYCAKDHRVWAAGYHFDYWGQGALVTVSS
VL: DIVLTQSPSTLSASVGDRVTITCRASQSISSWLAWYQQKPGEAPKLLISDASSLESGVPSRFSGSGSGTEFTLTISSLQPDDFATYYCQQYYSSPTFGGGTKVEIK
For B1, the “IC50 (nM), neutralization of rVSV-GP” value [1] was 1 nM, the “IC50 (nM), neutralization of rVSV-GP” value [2] was 0.4 nM and the “IC50 (nM), neutralization of rVSV-GP” value [3] was 0.9 nM.
